The values below come from patent publication US5840283A, “Composition and method for treating diseased nails” (Sorenson Pharmaceutical, Inc., priority 1997, dated 1998).

Where a name gives a salt, the structure may show the parent alone. Read-outs that look alike come from different tables or passages of the source.

The format of data set [1] is in vitro ADME, human. The method, then: The efficacy of the nail-permeable medication means of the present invention was first evaluated by conducting comparative studies comprising application of a selected drug applied to a human nail in vitro as compared to the application of the nail-permeable medication means containing the same drug applied to a human nail in vitro. Specifically, these tests were conducted using diseased human toenails which were surgically removed from patients as a means of curing the disease condition of the nail.
Each nail was maintained in an environment simulating an in vivo condition. Each nail was maintained suspended on a plastic holder which allowed air to circulate about the nail. Each nail holder was retained in a separate enclosed system the temperature and humidity within which could be carefully regulated to simulate the human body. These artificial in vivo environments provided the diffusion cells in which the studies were conducted.
Human nails were prepared by cleaning and, in some instances, grinding the nail down to establish a more even thickness across the nail. The nails were then hydrated using distilled water to render the nails pliable for placement in the diffusion cell. […] A Teflon® donor compartment 16 was positioned over the nail 12 and the nail saddle 14 was joined to the donor compartment 16 by placement of a silicone sealant about the edges of the nail 12 and donor compartment 16. After the silicone cured, water leakage was tested and the nails were resealed if necessary. […] Attempts were made to use an appropriate size "O" ring 18 to form the seal between the nail saddle 14 and the donor compartment 16.
The cell 10 was used by adding solvent, usually de-ionized water, until the solvent came into contact with the nail. […] When semi-solid treatment formulations were used, excess product was removed from the nail by cleansing with cotton swabs after twenty-four hours and prior to application of another nail treatment or pre-treatment product. Pretreatment products (e.g., hydrating fluid, etc.) and treatment products (i.e., nail-permeable medication means) were changed or supplemented daily throughout the experimental period.
After addition of the pretreatment or treatment product, the opening of the donor cell 10 was occluded with silicone cement/sealant. The possibility of entrapped air at the interface of the receiver solvent and nail was checked daily, as well as at the beginning of the experiment. To control this problem, care was taken to be certain that no bubbles were present at the time solvents were added and the nail placed in the saddle. Bubbles may not be visible after the apparatus is fully assembled. Also, dissolved gases tend to separate into bubbles and rise to the nail/receiver interface during the process.
Ciclopirox olamine (6-Cyclohexyl 1-hydroxy 4-methyl 2(1H)-pyridone, 2-aminoethanol salt [Bertrafen]), an antimycotic drug, was used in the nail-permeable medication means of the invention for the purposes of testing and analysis. Three analytical methods are identified in the literature which appear to be acceptable means of determining drug diffusion rates. One method requires the use of radio-labeled drug, and another method utilizes LC (liquid chromatography) equipment. The third method, described by Belliardo, et al., in "Micro-liquid chromatography method for the determination of ciclopirox olamine after pre-column derivatization in topical formulations" Jr. Chromatography, Vol. 553 (1991), p. 41-5, was the method used here. However, because of lack of access to a micro-LC system, lesser concentrations of ciclopirox olamine (<1-2 μg/ml of diffusion fluid) were unquantifiable. Lesser concentrations were sometimes seen as small irregularities on the HPLC (high-pressure liquid chromatography) tracing, but the identity was not confirmed by computer. […]

The nature of data set [2]: pilot clinical study in patients with subungual onychomycosis. It counts as in vivo, human. The settings on record: arm 3; patient's assessment of clinical results 1-5, 5 positive.
From the text: Patients enrolled in the study were diagnosed with subungual onychomycosis from a positive culture of a target nail. The target nail was that nail most severely involved with symptoms of onychomycosis. […] Patients with a history of non-response to standard antimycotic treatments, or severe abnormalities or deformities of the assessed fingers or toes, were excluded.
The protocol called for an eleven month treatment period.
Patients visited their physicians on a monthly basis for evaluation. Clinical measurements and mycological cultures were taken on alternating visits. Adverse events were defined as any abnormal inflammation of the tissues surrounding the nail from the patient's pretreatment condition and were checked by their physician or reported as they occurred. Patient evaluations of clinical treatment were obtained by a survey of patients. Ease of application, convenience of application, and patient's assessments of the clinical results were rated by patients on a scale of 1 to 5 with 1 indicating visible effect and 5 being positive. In addition, patients were also asked to respond to treatment compliance by reporting the number of days per week which they applied their medication as prescribed.
Therefore, patients treated in arm 3 (antifungal only) of the study were used as the baseline upon which clinical and mycologic results were measured.
For another data set, the system named is T. rubrum. The settings on record: cited from earlier work.
Data set [3] can be described thus: duration of papain activity after mixture with water. It counts as physicochemical. The following applies: certain activators present. An excerpt:
The nail-permeable medication means also includes a medicament which is especially selected for treatment of a particular disease condition. The concentration of medicament in the nail-permeable means is sufficient to effectively control or eliminate the disease condition. […] It is notable in that respect that many medications have a water base, or have a water component in addition to certain activators (e.g. thiols and mercaptans which include cysteine and a chelating agent, such as EDTA [ethylenediaminetetraacetic acid]) which, when admixed with the enzymatic composition, may begin to degrade the enzyme and/or reduce its effectiveness. However, admixture of a water-based or water-containing medicament with a proteolytic enzyme will typically degrade the enzymatic component slowly enough that significant penetration of the nail still takes place and the medicament is successfully delivered to the disease site. Generally, papain and other proteolytic enzymes are effective for approximately twenty-four hours after mixture with water where certain activators are present. In the absence of such activators, papain may remain active for up to two years.

The next data set deals with casein substrate. The following applies: cited from earlier work.
For data set [4] the following is noted: cited from earlier work.

With `Cc1cc(C2CCCCC2)n(O)c(=O)c1` [ciclopirox olamine, 6-Cyclohexyl 1-hydroxy 4-methyl 2(1H)-pyridone, 2-aminoethanol salt], in data set [1], the “amount of drug diffused compared with soaked nails” value is “less than when the nails were soaked with the papain-plus-activators”; the “diffusion of drug through the nail, control without proteolytic enzyme component” value was “no diffusion of drug through the nail”; the “drug diffusion for the seven-day period” value is 2 to 6 µg/mL; the “effect of increasing papain concentration on amount of drug diffused” value is given as “did not increase the amount of drug diffused”. Besides, the “effect of soaking time on amount of drug diffused” value in data set [1] is on record as “the amount of drug that diffused through the treated nails also increased”. In addition, the “ANALYSES (ciclopirox diffused through nail)” value in data set [1] (pH 10) was found to be 0 µg/mL. The “Results (1-5)” value in data set [2] is recorded as 1. The “minimum inhibitory concentration (MIC)” value in the data set on T. rubrum was 10 µg/mL.

B1: papain: proteolytic enzyme (protein, UniProt P00784 134-345, looked up)
Papain: IPEYVDWRQKGAVTPVKNQGSCGSCWAFSAVVTIEGIIKIRTGNLNEYSEQELLDCDRRSYGCNGGYPWSALQLVAQYGIHYRNTYPYEGVQRYCRSREKGPYAAKTDGVRQVQPYNEGALLYSIANQPVSVVLEAAGKDFQLYRGGIFVGPCGNKVDHAVAAVGYGPNYILIKNSWGTGWGENGYIRIKRGTGNSYGVCGLYTSSFYPVKN
For the molecule B1, the “diffusion results by papain concentration” value in data set [1] was “optimal diffusion results”. The “duration of effectiveness after mixture with water” value in data set [3] is given as “approximately twenty-four”.

B2: Marcor papain: Marcor Company (Hackensack, N.J.) papain (protein, UniProt P00784 134-345, looked up)
Papain: B1 Papain
modifications: commercial Marcor preparation
For the molecule B2, the papain activity in the data set with casein substrate (Marcor papain, footnote of EXAMPLE I) was 30,000 USP Units/m activity; in the data set on casein substrate (Marcor papain), 30,000 USP units/mg.

B3: Sigma papain, product no. P4762: Sigma Co., product no. P4762, 2× crystallized, lyophilized powder (protein, UniProt P00784 134-345, looked up)
Papain: B1 Papain
modifications: lyophilized powder
notes: Sigma Co., product no; P4762, 2× crystallized, lyophilized powder
B3: the papain activity in data set [4] (Sigma product no. P4762, 2× crystallized, lyophilized powder) is reported as 16-20 BAEE units/mg.

B4: ICN papain 2× crystallized suspension: ICN Company papain, 2× crystallized suspension form (protein, UniProt P00784 134-345, looked up)
Papain: B1 Papain
modifications: crystallized suspension
notes: ICN Company papain, 2× crystallized suspension form
In the case of B4, the papain activity in data set [4] (ICN papain forms) is given as 15-40 BAEE Units of activity.

B5: USP papain: papain of United States Pharmacopeia standard (protein, UniProt P00784 134-345, looked up)
Papain: B1 Papain
modifications: USP standard
As for B5, the papain activity result in the data set with casein substrate (USP papain) is listed as “at least 6,000 USP units per mg”.

B6: Sigma papain: papain product of Sigma, approximately eighty percent protein (protein, UniProt P00784 134-345, looked up)
Papain: B1 Papain
modifications: commercial preparation
notes: papain product of Sigma, approximately eighty percent protein
B6: the papain activity in data set [4] (25° C., pH 6.2, Sigma papain product) is 10-20 BAEE Units per milligram of enzyme-containing material.

B7: ICN papain 2× crystallized powder: ICN Company papain, 2× crystallized powder (protein, UniProt P00784 134-345, looked up)
Papain: B1 Papain
modifications: crystallized powder
notes: ICN Company papain, 2× crystallized powder
Consider B7, for which the papain activity in data set [4] (ICN papain forms) is recorded as 10-20 BAEE Units of activity.
